Assay: yeast display, Sf9 membrane polyspecificity reagent, FACS + sequencing; frameworks hold sequencing errors
Summary of the method: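 In a synthetic yeast display library (Saccharomyces cerevisiae BJ5465), nanobody expression was induced with galactose for 36–48 hours. FACS gates were set low and high (top ~1%) using anti-HA fluorescence for expression and streptavidin fluorescence for binding of the Sf9 membrane reagent. Each polyreactivity label is drawn from the gate of origin.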

Sequence	polyreactivity (PSR sort gate)
QVQLVESGGGLVQAGGSLRLSCAASGSTFYIYAMGAYRPAPGKERELVARISGSGGSTYYADSVKGRFTISRDNAKNTGYLQMNSLKPEDTAVYYCAADDIYKYYQYYAFPYYRYVYWGHGTQVTVSS	low polyreactivity
QVQLVESGGGLVQAGGSLRLSCAASGSTFYIYAMGWYRQAPGKEREFVAAISRTGGSTYYADSVKGRFTISRDNAKNTVYLQMNSLKPEDTAVYYCAAEYKGFRGRYDYWGQGTQVTVSS	high polyreactivity
QVQLVESGGGLVQAGGSLRLSCAASGSTFYIYAMGWYRQAPGKERELVADITWSGGSTYYADSVKGRFTISRDNAKNTVYLQMNSLKPEDTAVYYCATDSWFGLEYWGQCTQVTVSS	high polyreactivity
QVQLVESGGGLVQAGGSLRLSCAASGSTFYIYAMGWYRQAPGKERELVARISGSGGSTYYADSVKGRFTISRDNAKNTVYLQMNSLKPEDTAVYYCAADDIYKYYQYYAFPYYRYDYWGQGSQVTVSS	low polyreactivity
QVQLVESGGGLVQAGGSLRLSCAASGSTFYIYAMGWYRQAPGKERELVARISGSGGSTYYSDSVKGRFTISRDNSKNTVYLQMNSLKPEVTAVYYCAADDIYKYYQYYAFPYYRYDYWGQGTQVTVSS	low polyreactivity
QVQLVESGGGLVQAGGSLRLSCAASGSTFYIYAMGWYRQAPGKERELVATITRAGTTNYADSVKGRFTISRDNAMNTVYLQMNSLKPEETAVYYCAKRKFRWPYQGSYSYIPFGYCGQGTQVTVSS	high polyreactivity
QVQLVESGGGLVQAGGSLRLSCAASGSTFYKNAMGWYRQAPGKERELVAAINQSGTRTYYADSVKGRFTISRDNAKNTVYLQMNSLKPEDTAVYYCAAGRGPYYRSRTPLYYWGQGTQVTVSS	high polyreactivity
QVQLVESGGGLVQAGGSLRLSCAASGSTFYKNAMGWYRQAPGKERELVAGISRRGGRTYYADSVKGRFTISRDNAKNTVYLQMNSLKPEDTAVYYCNTGHEEDEYDYWGQGTQVTVSS	low polyreactivity
QVQLVESGGGLVQAGGSLRLSCAASGSTFYKYAMGWYRQATGKERELVASTYADSVKGRFTISRDNAKNTVYLQMNSLKPEDTAVYYCAKDTASGPYDYWGQGTQVTVSS	low polyreactivity
QVQLVESGGGLVQAGGSLRLSCAASGSTFYKYGMGWYRPAPGKERELVAAISGSGDSTYYADSVKGRFTISRDNAKNTVYLQMNSLKPEDTAVYYCNAGPWWYLHEYDYWGQGTQVTVSS	low polyreactivity
QVQLVESGGGLVQAGGSLRLSCAASGSTFYLNAMGWYRKAHGKERELVAPINGSGGSTYADSVKGRFTISRDNAKNTVYLQLHSLKPEDTAVYYCAADGTGYPGDSYPGMDYDYWGQVTQVTVSS	low polyreactivity
QVQLVESGGGLVQAGGSLRLSCAASGSTFYLNAMGWYRQAPGKERELVAAINGSGGSTYADSVKGRFTISRDNAKNTVYLQMKSLIQEDTAVYYCAADGSGYPGYSYPGKDYDDWGQGTQVNVSS	low polyreactivity
QVQLVESGGGLVQAGGSLRLSCAASGSTFYLNAMGWYRQAPGKERELVAAISRRGGSTYYADSVKGRFTISRDNAKNTVYLEMNSLKPDDTAVYYCNRARVYGYYAPFDYWGQGTQVTVSS	high polyreactivity
QVQLVESGGGLVQAGGSLRLSCAASGSTFYLNAMGWYRQAPGKERELVAAISSGGRTYYADSVKGRFTISRDNAKNTVYLQMNSLKPEDTAVYYCNAVRYLRGAYNYWGQGTQVTVSS	high polyreactivity
QVQLVESGGGLVQAGGSLRLSCAASGSTFYLNAMGWYRQAPGKERELVAAISSSGGSKYYADSVKGRFTISRDNAKNTVYLQMNSLKPEDTAVYYCACSCFPAVSVYGGDYWGQGTQVTVSS	low polyreactivity
QVQLVESGGGLVQAGGSLRLSCAASGSTFYLYAKGWYRQAPGKEREMVAAITGSGSRTYYADSVKGRFTISRDNAKNTVYLQMHSLNPEDTAVYYCAAKYGWQGGRGRDYWGQGTQVTVSS	high polyreactivity
QVQLVESGGGLVQAGGSLRLSCAASGSTFYLYAMGWYRQAPGKERELVAAISWSGGDKYYADSVKGRFTISRDNAKNTVYLQMNSLKPEDTAVYYCAAEITDSYPGSPRRRDYWGQGTQVTVSS	low polyreactivity
QVQLVESGGGLVQAGGSLRLSCAASGSTFYLYTMGWYRQAPGKERELVAAINRSGGRTYYADSVKGRFTISRDNAKNTVYLQMNSLKPEDTAVYYCAADLASYAYRYDYWGQGTQVTVSS	high polyreactivity
QVQLVESGGGLVQAGGSLRLSCAASGSTFYNAMGWYRQAPGKERELVAAITRSGGSTYYADSVKGRFTISRDNAKNTVYLQMNSLKPEDTAVYYCAAKSIIRPSAPRRDDMDYWGQGTQVTVSS	low polyreactivity
QVQLVESGGGLVQAGGSLRLSCAASGSTFYNNAMGWYRPAPGKERELVAAISSGGGTYYADSVKGRFTISRDNAKNTVYLQMNSLKPEDTAVYYCAAYFANTTHWGRIKRYDYWGQGTQVTVSS	low polyreactivity
QVQLVESGGGLVQAGGSLRLSCAASGSTFYNNAMGWYRQAPGKERESVAAITASGGRTYYADSVKGRFTISRDNAKNTVYLQMNSLKPEDTAVYYCAARGFDRYYWGQGTQVTVSS	high polyreactivity
QVQLVESGGGLVQAGGSLRLSCAASGSTFYNYVMGWYRQAPGKERELVAVINRSGTRTYYADSVKGRLTISRDNAKITVYLQMNSLKPEDTAVYYCNAELSYPGRYDSWGQGTQVTVSS	high polyreactivity

Sequence	polyreactivity (PSR sort gate)
QVQLVESGGGLVQAGGSLRLSCAASGSTFYPNAMGWYRQAPGKERELVAAITDSVGTTNYADSVKGRFTISRDNAKNTVYLQMNSLKPEDTAVYYCAKVKSYWNGYRYYYWGQGTQVTVSS	low polyreactivity
QVQLVESGGGLVQAGGSLRLSCAASGSTFYPYAMGWYRLAPGKERELVAVISSGGSTNYADSVKGRFTISRDNAKNTVYLQMNSLKPEDTAVYYCAADLAVYYIFLALEFNYWGQGTQVTVSS	low polyreactivity
QVQLVESGGGLVQAGGSLRLSCAASGSTFYPYAMGWYRQAPGKEREFVAAISGRGGSTFYADSVKGRFTISRDNAKNTVYIQMNSLKPEDTAVYYCAASVFKLVGYDYWGQGTQVTLSS	high polyreactivity
QVQLVESGGGLVQAGGSLRLSCAASGSTFYPYAMGWYRQAPGKERELVAAISRIGSRTYYADSVKGRFTISRDNAKNTVYLQMNSLKPEDTAVYYCNASYVLTGQRYGYWGQGTQVTVSS	low polyreactivity
QVQLVESGGGLVQAGGSLRLSCAASGSTFYPYAMGWYRQAPGKERELVAAISSGGSTSYADSVKGRFTISRDNAKNTVYLQMNSLKPEDTAVYYCNASSPGAVPVYDYDYWGQGTQVTVSS	low polyreactivity
QVQLVESGGGLVQAGGSLRLSCAASGSTFYPYAMGWYRQAPGKERELVAAISSGGSTYYADSVKGRFTISRDNAKNTVYLQMNSLKPQDTAVYYCAADFYYAYYWGQGTQVTVSS	low polyreactivity
QVQLVESGGGLVQAGGSLRLSCAASGSTFYPYAMGWYRQAPGKERELVAAISYSGGSTYYADSVKGRFTISRDNAKNTVYLQMNSLKPEDSAVYYCAAYYRRQFTSYGNYYYWGQGTQVTLSS	high polyreactivity
QVQLVESGGGLVQAGGSLRLSCAASGSTFYPYAMGWYRQAPGKERELVAAITSGGRTYYADSVKGRFTISRDNAKNTVYLQMNSLKPEDTAVYYCAALQYRRLRDYRHDYWGQGTQVTVSS	high polyreactivity
QVQLVESGGGLVQAGGSLRLSCAASGSTFYPYAMGWYRQAPGKERELVAAITSSGGSTYYADSVKGRFTISRDNAKNTVYLQMNSLKPEDSAVYYCAKLHVPPVHYDYWGQGTQVTVSS	low polyreactivity
QVQLVESGGGLVQAGGSLRLSCAASGSTFYPYAMGWYRQAPGKERELVADITNSGSTYYADSVKGRFTISRDNAKNTVYLQMNSLKPEDTAVYYCAARVYSVADYYYWGQGTQVTVSS	low polyreactivity
QVQLVESGGGLVQAGGSLRLSCAASGSTFYPYAMGWYRQAPGKERELVASITTDDGSTYYADSVKGRFTISRDNAKNTVYLQMNSLKPEDTAVYYCAARFRGFAVDWYPFRQGDYWGQGTQVTVSS	low polyreactivity
QVQLVESGGGLVQAGGSLRLSCAASGSTFYPYAMGWYRQAPGKERELVAVISWRGGSTYYADSVKGRFTISRDNAKNTVYLQMNSLKPEDTAVYYCGASGYRGYEYWGQGTQVTVSS	high polyreactivity
QVQLVESGGGLVQAGGSLRLSCAASGSTFYPYFMGWYRQAPAKEREFVAAISKSGGSTYYADSVKGRFTISRDNAKNTVYLQMNSLKPEDTAVYYCNKKVGSYYRSYYYWGQGTQVTVSS	high polyreactivity
QVQLVESGGGLVQAGGSLRLSCAASGSTFYQYDMGWSRQAPGKERELVATISWSATSTYYADSVKGRFTISRDNAKNTVYLQMNSLKPEDTAVYYCNADLGDVYGWLHYDYWGQGTQVTVSS	low polyreactivity
QVQLVESGGGLVQAGGSLRLSCAASGSTFYRNAMGWSRPAPGKERELVAAINKSGGRTYYADSVKGRFTISRDNAKNTVYLQMNSLKPEDTAVYYCAAGVSVDLDYWGQGTQVTVSS	high polyreactivity
QVQLVESGGGLVQAGGSLRLSCAASGSTFYRNAMGWYRQAPGKERELVAAISGSGARTYYADSVKGRFTISRDNAKNTVYLQMNSLKPEDTAVYYCNAKRYFRNHFRTGGMYYWGQGTQVTVSS	high polyreactivity
QVQLVESGGGLVQAGGSLRLSCAASGSTFYRNAMGWYRQAPGKERELVAAISSTGGSTYYADSVKGRFTISRDNAKNTVYLQMNSLKAEDTAVYYCAVDPGLTKGFGYWGQGTHVTVSS	low polyreactivity
QVQLVESGGGLVQAGGSLRLSCAASGSTFYRNAMGWYRQAPGKERELVAAITWSGGTTYYADSVKGRFTISRDNAKNTVYLQMNSLKPEDTAVYYCAARFILAPRRGYNAYKYYYWGQGTQVTVSS	high polyreactivity
QVQLVESGGGLVQAGGSLRLSCAASGSTFYRNTMGWYRQAPGKERELVAAIRRSGSSTYYADSVKGRFTISRDNAKNTVYLQMNSLKPDDTAVYYCAKEGLSYRYYYCGQGTQVTVSS	high polyreactivity
QVQLVESGGGLVQAGGSLRLSCAASGSTFYRYAMGCYRQAPGKERELVAAISSRGGSTYYADSVKGRFTISRDNAKNTVYLQMNSLKPEDTAVYYCAAQVYGTAGYYYWGQGTQVTVSS	high polyreactivity
QVQLVESGGGLVQAGGSLRLSCAASGSTFYRYAMGWYRQAPGKEREFVAAISRSGGSTYYADSVKGRFTISRDNAKNTVYLQMNSLKPEDTAVYYCNKYYWYPYGRAHYYGYWGQGTQVTVSS	high polyreactivity

Reference: the nanobody polyreactivity screen of Harvey et al. (2022)
